Assay results taken from IntAct's records for PubMed 19013276.

B1: Cell cycle serine/threonine-protein kinase CDC5/MSD2 (Saccharomyces cerevisiae), P32562 (parent)
chain: MSLGPLKAINDKQLNTRSKLVHTPIKGNTADLVGKENHFKQTKRLDPNNDHHHQPAQKKKREKLSALCKTPPSLIKTRGKDYHRGHFLGEGGFARCFQIKDDSGEIFAAKTVAKASIKSEKTRKKLLSEIQIHKSMSHPNIVQFIDCFEDDSNVYILLEICPNGSLMELLKRRKVLTEPEVRFFTTQICGAIKYMHSRRVIHRDLKLGNIFFDSNYNLKIGDFGLAAVLANESERKYTICGTPNYIAPEVLMGKHSGHSFEVDIWSLGVMLYALLIGKPPFQARDVNTIYERIKCRDFSFPRDKPISDEGKILIRDILSLDPIERPSLTEIMDYVWFRGTFPPSIPSTVMSEAPNFEDIPEEQSLVNFKDCMEKSLLLESMSSDKIQRQKRDYISSIKSSIDKLEEYHQNRPFLPHSLSPGGTKQKYKEVVDIEAQRRLNDLAREARIRRAQQAVLRKELIATSTNVIKSEISLRILASECHLTLNGIVEAEAQYKMGGLPKSRLPKIKHPMIVTKWVDYSNKHGFSYQLSTEDIGVLFNNGTTVLRLADAEEFWYISYDDREGWVASHYLLSEKPRELSRHLEVVDFFAKYMKANLSRVSTFGREEYHKDDVFLRRYTRYKPFVMFELSDGTFQFNFKDHHKMAISDGGKLVTYISPSHESTTYPLVEVLKYGEIPGYPESNFREKLTLIKEGLKQKSTIVTVD
partner: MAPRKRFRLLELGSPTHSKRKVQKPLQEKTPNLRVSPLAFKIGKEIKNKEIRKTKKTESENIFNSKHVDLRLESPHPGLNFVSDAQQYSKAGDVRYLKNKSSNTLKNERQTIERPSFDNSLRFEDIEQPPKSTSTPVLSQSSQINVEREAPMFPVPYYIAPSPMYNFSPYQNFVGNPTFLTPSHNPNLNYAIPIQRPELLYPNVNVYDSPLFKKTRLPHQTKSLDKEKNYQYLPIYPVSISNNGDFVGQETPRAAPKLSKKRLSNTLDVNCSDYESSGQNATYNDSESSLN

Variants of: B1
Details: with spo13_yeast SPO13, P23624

| effect of a mutation on the interaction | Variant |
| --- | --- |
| decreasing interaction | W517A;V518A;L530A |

Variants of: B1
Details: with spo13_yeast SPO13, P23624
Remark: another data set of the same source

| effect of a mutation on the interaction | Variant |
| --- | --- |
| decreasing interaction | W517A;V518A;L530A |
